Measured values: patent publication US20180355060A1 (published 2018)
Changes are numbered by the printed parent chain.

Experiments:
[1] = target: T1, human transglutaminase type 2 (TG2) (human, UniProt P21980 1-687); experiment: cell-based or functional assay
T1 sequence: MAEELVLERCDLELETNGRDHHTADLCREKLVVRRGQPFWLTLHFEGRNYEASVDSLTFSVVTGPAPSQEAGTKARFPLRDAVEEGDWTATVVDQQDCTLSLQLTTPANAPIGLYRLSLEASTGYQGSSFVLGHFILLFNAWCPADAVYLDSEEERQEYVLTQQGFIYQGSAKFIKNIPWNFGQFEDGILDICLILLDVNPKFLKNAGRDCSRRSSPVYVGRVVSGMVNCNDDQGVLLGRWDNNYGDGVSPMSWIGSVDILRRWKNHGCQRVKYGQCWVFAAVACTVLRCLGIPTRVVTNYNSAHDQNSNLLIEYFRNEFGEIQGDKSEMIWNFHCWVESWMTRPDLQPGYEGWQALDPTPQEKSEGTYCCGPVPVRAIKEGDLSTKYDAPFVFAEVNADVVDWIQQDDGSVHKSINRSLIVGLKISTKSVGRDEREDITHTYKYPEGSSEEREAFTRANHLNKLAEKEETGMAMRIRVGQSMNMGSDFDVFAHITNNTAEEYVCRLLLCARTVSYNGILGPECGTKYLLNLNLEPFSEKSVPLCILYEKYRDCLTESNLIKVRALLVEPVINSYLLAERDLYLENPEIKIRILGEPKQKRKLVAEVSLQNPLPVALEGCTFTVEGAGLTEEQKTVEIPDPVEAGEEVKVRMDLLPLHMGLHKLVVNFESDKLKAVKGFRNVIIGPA

cynomolgus monkey TG2 [2] = target: T2, cynomolgus monkey TG2 (cynomolgus monkey, UniProt A0A2K5VXI8 2-687); experiment: SPR (Biacore T200), antibody captured on anti-human IgG1 Fc chip, cynomolgus TG2 injected; Ca2+ condition not marked in this row
T2 construct: Recombinant, from Trenzyme; also called cynomogulus monkey TG2; cyano TG2
T2 sequence: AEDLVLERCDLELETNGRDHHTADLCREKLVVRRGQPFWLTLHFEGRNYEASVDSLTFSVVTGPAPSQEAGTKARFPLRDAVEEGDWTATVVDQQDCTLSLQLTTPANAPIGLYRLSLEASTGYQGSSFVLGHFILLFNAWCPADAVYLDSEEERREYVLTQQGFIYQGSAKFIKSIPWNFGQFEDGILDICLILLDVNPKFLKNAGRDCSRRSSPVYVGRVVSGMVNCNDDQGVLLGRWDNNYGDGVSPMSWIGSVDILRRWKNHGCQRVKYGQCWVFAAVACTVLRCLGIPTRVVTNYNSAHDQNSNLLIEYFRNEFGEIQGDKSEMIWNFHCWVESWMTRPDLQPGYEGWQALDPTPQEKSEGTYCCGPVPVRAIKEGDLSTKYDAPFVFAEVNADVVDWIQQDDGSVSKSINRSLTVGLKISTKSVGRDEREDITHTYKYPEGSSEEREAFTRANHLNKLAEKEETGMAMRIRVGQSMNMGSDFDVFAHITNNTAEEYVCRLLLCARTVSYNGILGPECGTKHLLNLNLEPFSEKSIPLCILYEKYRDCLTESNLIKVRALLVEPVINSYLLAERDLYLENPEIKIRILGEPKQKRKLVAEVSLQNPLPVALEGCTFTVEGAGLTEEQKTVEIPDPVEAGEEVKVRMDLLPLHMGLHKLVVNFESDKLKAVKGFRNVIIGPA
Procedure: (§1) The method employed to determine the affinity of the anti-TG2 antibodies involved the capture of the chimeric or humanised antibodies on a MAH coated CM5 chip, followed by the injection of a series of TG2 samples in running buffer. The running buffer was 1× HBS-P+ containing 1 mM CaCl₂, or 1×HBS-EP+ for calcium-free experiments. Antibody capture was carried out for a contact time of 120 seconds at a flow rate of 10 μl/min resulting in the capture of approximately 40-80 RU. TG2 was injected over the immobilised antibody at concentrations ranging from 25 nM to 400 nM with a contact time up to 600 seconds at a flow rate of 30 μl/min. Dissociation of TG2 was typically measured for up to 5400 seconds (1.5 hours). Regeneration of the chip was then performed using 3 M MgCl₂, for a contact time of 60 seconds at a flow rate of […], followed by a 300s stabilisation period before the next sample. For each of human and cynomolgus monkey TG2, at least 5 injections at a variety of concentrations were performed in at least two separate experiments.
(§2) Kinetic data were exported from the Biacore T200 Evaluation Software and analysed using GraphPad Prism, where the association phases and dissociation phases were analysed separately using a one phase association model and one-phase exponential decay model respectively. Association rates (kₒₙ) were calculated for each curve individually, and dissociation rates (koff) values from the long dissociation phase data collected. Where koff values were calculated to be <1×10⁻⁵ s⁻¹, values were set at 1×10⁻⁵ for analysis, as rates slower than this could not be estimated accurately. Values for kₒₙ and koff are presented in the tables below as the mean of the individual calculated values for each antibody for each TG2 species from multiple concentrations +/−1 standard deviation. KD values are calculated as mean koff/mean kₒₙ.

[3] = target: T1, human transglutaminase type 2 (TG2); experiment: SPR (Biacore T200), antibody captured on anti-human IgG1 Fc chip, human TG2 injected; Ca2+ condition not marked in this row
Procedure: as §1, §2

rat TG2 [4] = target: T3, rat TG2 (rat, UniProt Q9WVJ6 1-686); experiment: cell-based or functional assay
T3 sequence: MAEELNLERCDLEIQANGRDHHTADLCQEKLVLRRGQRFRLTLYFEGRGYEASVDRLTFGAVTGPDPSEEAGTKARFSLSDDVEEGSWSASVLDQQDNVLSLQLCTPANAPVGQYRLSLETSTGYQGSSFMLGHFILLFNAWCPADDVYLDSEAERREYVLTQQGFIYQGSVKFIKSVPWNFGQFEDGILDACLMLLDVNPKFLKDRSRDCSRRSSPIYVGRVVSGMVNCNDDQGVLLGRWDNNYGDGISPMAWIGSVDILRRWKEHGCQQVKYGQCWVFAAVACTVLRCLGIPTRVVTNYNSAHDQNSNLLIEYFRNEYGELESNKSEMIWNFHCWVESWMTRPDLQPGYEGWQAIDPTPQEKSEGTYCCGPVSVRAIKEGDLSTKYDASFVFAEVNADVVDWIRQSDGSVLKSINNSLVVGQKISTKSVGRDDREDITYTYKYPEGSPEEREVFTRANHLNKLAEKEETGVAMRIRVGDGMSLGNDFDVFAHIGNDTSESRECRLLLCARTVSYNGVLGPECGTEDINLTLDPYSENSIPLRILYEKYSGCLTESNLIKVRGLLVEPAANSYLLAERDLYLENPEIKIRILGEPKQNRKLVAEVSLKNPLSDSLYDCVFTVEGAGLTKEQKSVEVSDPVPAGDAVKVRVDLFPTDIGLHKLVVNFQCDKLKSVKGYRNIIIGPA

rat TG2 [5] = target: T3, rat TG2; experiment: western blot and ELISA
cynomolgus monkey TG2 [6] = target: T2, cynomolgus monkey TG2; experiment: SPR (Biacore T200), antibody captured on anti-human IgG1 Fc chip, cynomolgus TG2 injected; +Ca2+
Procedure: as §1, §2

cynomolgus monkey TG2 [7] = target: T2, cynomolgus monkey TG2; experiment: SPR (Biacore T200), antibody captured on anti-human IgG1 Fc chip, cynomolgus TG2 injected; -Ca2+
Procedure: as §1, §2

[8] = target: T1, human transglutaminase type 2 (TG2); experiment: SPR (Biacore T200), antibody captured on anti-human IgG1 Fc chip, human TG2 injected; -Ca2+
Procedure: (§3) FIG. 45: Human TG2 binding to cAB003 immobilised antibody by Biacore. The association phases of human TG2 injections over the cAB003-coated biosensor at 25, 50, 100 and 200 nM, including in duplicate at 50 nM, are shown on the left. From the same experiment, two long dissociation phases were collected, as shown on the right.
as §1, with “For each of human and cynomolgus monkey TG2, at least 5 injections at a variety of concentrations were performed in at least two separate experiments.” left out
as §2

[9] = target: T1, human transglutaminase type 2 (TG2); experiment: SPR (Biacore T200), antibody captured on anti-human IgG1 Fc chip, human TG2 injected; +Ca2+
Procedure: as §3
as §1, with “For each of human and cynomolgus monkey TG2, at least 5 injections at a variety of concentrations were performed in at least two separate experiments.” left out
as §2

B1: hBB001AA humanised BB7 antibody (BB7 RHA with BB7 RKA) (antibody, V domains shown)
VH: EVQLLESGGGLVQPGGSLRLSCAASGIIFSSSAMSWVRQAPGKGLEWVATISSGGRSTYYPDSVKGRFTVSRDSSKNTLYLQMNSLRAEDTAVYYCAKLISPYWGQGTLVTVSS
VL: DIKMTQSPSSLSASVGDRVTITCKASQDINSYLTWFQQKPGKAPKTLIYLTNRLMDGVPSRFSGSGSGQEFLLTISSLQPEDFATYYCLQYVDFPYTFGQGTKVEIK
notes: The name AA is read as heavy version RHA + kappa version RKA; also called hBB01AA
- IC50, inhibition of extracellular TG2 activity of HK2 cells (biotin cadaverine incorporation into fibronectin) [1]: 19800 pM
- Kd (cynomolgus monkey TG2 [2]): < 30 pM
- koff (cynomolgus monkey TG2 [2]): < 1e-05 s⁻¹
- kon (cynomolgus monkey TG2 [2]): 300000 M⁻¹ s⁻¹
- kon [3]: 270000 M⁻¹ s⁻¹

B2: DH2 murine monoclonal anti-TG2 antibody (antibody, V domains shown)
VH: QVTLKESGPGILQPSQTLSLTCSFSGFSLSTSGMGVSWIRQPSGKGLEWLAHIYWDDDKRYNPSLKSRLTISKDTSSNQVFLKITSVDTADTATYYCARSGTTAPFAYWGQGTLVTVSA
VL: QIVLTQSPAIMSASPGEKVTMTCSASSSVSYMYWYQQKPGSSPRLLIYDTSNLASGVPVRFSGSGSGTSYSLTISRMEAEDAATFYCQQWSSSPLTFGAGTKLELK
- IC50, 3H-putrescine incorporation TG activity assay (rat TG2 [4]): 0.000223 mg/ml of IgG (amount required to inhibit 1 ng of TG2)

B3: DD9 murine monoclonal anti-TG2 antibody (antibody, V domains shown)
VH: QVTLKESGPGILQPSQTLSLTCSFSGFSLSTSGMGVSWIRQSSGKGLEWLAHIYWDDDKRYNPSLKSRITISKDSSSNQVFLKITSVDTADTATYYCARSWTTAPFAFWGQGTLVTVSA
VL: B2 VL with S30D, E78G, F85Y, S91N
notes: Mouse IgG from hybridoma (gamma-2a primer MHCG2A, kappa); also called mDD9001
- binding result (rat TG2 [5]): binds

B4: hAB004 (hAB001AE) humanised AB1 antibody, heavy chain version RHA with light chain version RKE (antibody, V domains shown)
VH: B1 VH with I27F, I28T, A49S, S53V, R56G, S57K, V70I, S74N, P102L
VL: EIVLTQSPSSLSASVGDRVTITCKASQDINSYLTWYQQKPGKAPKLLIYRTNRLFDGVPSRFSGSGSGTDFFFTISSLQPEDFGTYYCLQYDDFPYTFGGGTKLEIK
notes: Captured by anti-human IgG1 Fc in SPR
- Kd (cynomolgus monkey TG2 [2]): 11 pM

B5: hBB001BB humanised BB7 antibody (BB7 RHB with BB7 RKB) (antibody, V domains shown)
VH: B1 VH with I27F, I28T, A49S, V70I, S74N
VL: B1 VL with K3Q, T46S, Q69T, E70D, L72F
notes: The name BB is read as heavy version RHB + kappa version RKB
- IC50, inhibition of extracellular TG2 activity of HK2 cells (biotin cadaverine incorporation into fibronectin) [1]: 4900 pM
- Kd (cynomolgus monkey TG2 [2]): 140 pM
- koff (cynomolgus monkey TG2 [2]): 3.7e-05 s⁻¹
- kon (cynomolgus monkey TG2 [2]): 270000 M⁻¹ s⁻¹
- Kd [3]: < 40 pM
- koff [3]: < 1e-05 s⁻¹
- kon [3]: 240000 M⁻¹ s⁻¹

B6: cAB003 chimeric anti-TG2 antibody (murine AB1 variable regions, human IgG1 and human kappa) (antibody, V domains shown)
VH: EVQLVESGGGLVKPGGSLKLSCAASGFTLSSSAMSWVRQTPDRRLEWVATISVGGGKTYYPDSVKGRFTISRDNAKNTLYLQMNSLRSEDTAMYYCAKLISLYWGQGTTLTVSS
VL: DIKMTQSPSSMYASLGERVTITCKASQDINSYLTWFQQKPGKSPKTLIYRTNRLFDGVPSRFSGSGSGQDFFLTISSLEYEDMGIYYCLQYDDFPYTFGGGTKLEIK
notes: The versions differ only in the first 7 residues; also called chimeric AB1
- Kd (cynomolgus monkey TG2 [6]): 50 pM
- koff (cynomolgus monkey TG2 [6]): 1.2e-05 s⁻¹
- kon (cynomolgus monkey TG2 [6]): 240000 M⁻¹ s⁻¹
- Kd (cynomolgus monkey TG2 [7]): 93 pM
- koff (cynomolgus monkey TG2 [7]): 1.3e-05 s⁻¹
- kon (cynomolgus monkey TG2 [7]): 140000 M⁻¹ s⁻¹
- Kd [8]: < 100 pM
- koff [8]: < 1e-05 s⁻¹
- kon [8]: 86000 M⁻¹ s⁻¹
- Kd [9]: < 60 pM
- koff [9]: < 1e-05 s⁻¹
- kon [9]: 170000 M⁻¹ s⁻¹

B7: BB7 murine monoclonal anti-TG2 antibody (antibody, V domains shown)
VH: AVQLVESGGGLVKPGGSLKLSCAASGIIFSSSAMSWVRQTPEKRLEWVATISSGGRSTYYPDSVKGRFTVSRDSAKNTLYLQMDSLRSEDTAIYYCAKLISPYWGQGTTLTVSS
VL: B6 VL with D1A, T20I, R50L, F55M, D70E, F72L, S77G, Y80H, D92V
notes: Mouse IgG from hybridoma (gamma-1 primer MHCG1, kappa); also called mBB001
- binding result (rat TG2 [5]): binds
